In US20140072613A1, “Compositions and Methods for Treating Cutaneous Scarring” (priority 2012, published 2014) one finds % activity, 100 µM and inhibition of kinase activity data, which are given here for 1 substance.

Targets include Fyn(h) (human) (UniProt P06241); PAK5(h) (human) (UniProt Q9P286); PKCγ(h) (human) (UniProt P05129); TrkB(h) (human) (UniProt Q16620); Arg(h) (human) (UniProt P42684); MAPK2(h) (human) (UniProt P28482); EGFR(h) (human) (UniProt P00533); EGFR(T790M)(h) (human) (UniProt P00533); FGFR3(h) (human) (UniProt P22607); MST3(h) (human) (UniProt Q9Y6E0); PDGFRβ(h) (human) (UniProt P09619); ROCK-I(h) (human) (UniProt Q13464); CK2(h) (human).

Common to all, as to experiment: cell-based or functional assay
The target of the next assay is T1, DCAMKL2(h) (human) (UniProt Q8N568).
T1 sequence (looked up): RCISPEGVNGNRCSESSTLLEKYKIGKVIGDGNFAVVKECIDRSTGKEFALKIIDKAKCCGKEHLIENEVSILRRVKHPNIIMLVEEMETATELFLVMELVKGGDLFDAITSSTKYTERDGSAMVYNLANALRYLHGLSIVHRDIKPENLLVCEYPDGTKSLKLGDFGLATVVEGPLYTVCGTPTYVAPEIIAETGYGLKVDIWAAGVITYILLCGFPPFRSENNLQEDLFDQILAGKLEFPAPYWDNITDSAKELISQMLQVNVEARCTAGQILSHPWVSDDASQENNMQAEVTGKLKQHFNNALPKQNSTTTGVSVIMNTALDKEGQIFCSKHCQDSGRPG

A further assay addresses T2, Ret(V804L)(h) (human) (UniProt P07949).
T2 sequence (looked up): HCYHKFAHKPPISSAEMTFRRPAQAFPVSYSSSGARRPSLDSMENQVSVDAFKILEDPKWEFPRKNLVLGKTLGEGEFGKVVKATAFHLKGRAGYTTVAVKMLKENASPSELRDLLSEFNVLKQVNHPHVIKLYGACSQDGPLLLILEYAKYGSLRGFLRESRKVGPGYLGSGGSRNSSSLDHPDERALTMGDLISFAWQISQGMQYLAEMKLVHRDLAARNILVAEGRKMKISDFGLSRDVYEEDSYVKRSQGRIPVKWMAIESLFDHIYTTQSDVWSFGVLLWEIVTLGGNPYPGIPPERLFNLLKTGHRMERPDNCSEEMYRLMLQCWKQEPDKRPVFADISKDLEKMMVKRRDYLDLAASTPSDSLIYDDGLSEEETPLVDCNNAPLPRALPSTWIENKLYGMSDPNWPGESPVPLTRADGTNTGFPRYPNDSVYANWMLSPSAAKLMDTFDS

Another assay addresses T3, PKCµ(h) (human) (UniProt Q15139).
T3 sequence (looked up): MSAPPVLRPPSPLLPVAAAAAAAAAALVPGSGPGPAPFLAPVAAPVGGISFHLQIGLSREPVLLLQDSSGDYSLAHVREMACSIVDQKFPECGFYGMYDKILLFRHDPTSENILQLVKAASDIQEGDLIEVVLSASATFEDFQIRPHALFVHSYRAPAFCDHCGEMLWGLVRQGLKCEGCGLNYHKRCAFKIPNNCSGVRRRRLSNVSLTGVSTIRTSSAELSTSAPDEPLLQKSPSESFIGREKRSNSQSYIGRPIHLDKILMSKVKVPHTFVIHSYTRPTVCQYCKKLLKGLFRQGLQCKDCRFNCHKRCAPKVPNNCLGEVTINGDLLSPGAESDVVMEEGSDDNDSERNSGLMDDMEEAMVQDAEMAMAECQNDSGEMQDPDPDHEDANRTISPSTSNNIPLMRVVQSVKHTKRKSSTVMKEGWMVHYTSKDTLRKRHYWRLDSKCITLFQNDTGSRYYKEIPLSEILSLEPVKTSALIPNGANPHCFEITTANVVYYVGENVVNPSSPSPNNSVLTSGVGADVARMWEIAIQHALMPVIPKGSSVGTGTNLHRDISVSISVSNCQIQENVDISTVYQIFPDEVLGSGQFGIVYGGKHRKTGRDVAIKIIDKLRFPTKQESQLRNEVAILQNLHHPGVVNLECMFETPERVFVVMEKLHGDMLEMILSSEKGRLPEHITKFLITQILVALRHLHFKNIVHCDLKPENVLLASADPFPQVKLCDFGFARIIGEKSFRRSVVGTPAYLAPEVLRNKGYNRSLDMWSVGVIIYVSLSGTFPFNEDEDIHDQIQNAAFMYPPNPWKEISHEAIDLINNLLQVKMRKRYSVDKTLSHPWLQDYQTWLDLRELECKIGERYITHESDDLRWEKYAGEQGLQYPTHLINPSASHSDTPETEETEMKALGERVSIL

The next assay addresses T4, NEK3(h) (human) (UniProt P51956).
T4 sequence (looked up): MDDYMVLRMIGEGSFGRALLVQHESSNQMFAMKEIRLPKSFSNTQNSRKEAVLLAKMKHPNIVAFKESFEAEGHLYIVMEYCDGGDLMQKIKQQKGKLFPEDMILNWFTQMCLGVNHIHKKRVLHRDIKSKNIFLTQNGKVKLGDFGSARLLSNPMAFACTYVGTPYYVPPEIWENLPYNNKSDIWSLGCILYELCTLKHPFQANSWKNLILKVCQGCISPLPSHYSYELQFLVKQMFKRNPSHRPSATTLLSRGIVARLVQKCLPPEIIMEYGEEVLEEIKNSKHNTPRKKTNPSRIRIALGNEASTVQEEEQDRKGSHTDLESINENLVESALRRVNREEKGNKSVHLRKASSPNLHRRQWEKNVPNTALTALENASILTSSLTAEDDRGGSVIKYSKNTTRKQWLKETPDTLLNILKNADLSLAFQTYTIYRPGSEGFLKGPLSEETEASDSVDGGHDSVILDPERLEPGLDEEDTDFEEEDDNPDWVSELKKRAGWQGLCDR

Sequence of TrkB(h) (human) (Q16620 455-822 limits assumed): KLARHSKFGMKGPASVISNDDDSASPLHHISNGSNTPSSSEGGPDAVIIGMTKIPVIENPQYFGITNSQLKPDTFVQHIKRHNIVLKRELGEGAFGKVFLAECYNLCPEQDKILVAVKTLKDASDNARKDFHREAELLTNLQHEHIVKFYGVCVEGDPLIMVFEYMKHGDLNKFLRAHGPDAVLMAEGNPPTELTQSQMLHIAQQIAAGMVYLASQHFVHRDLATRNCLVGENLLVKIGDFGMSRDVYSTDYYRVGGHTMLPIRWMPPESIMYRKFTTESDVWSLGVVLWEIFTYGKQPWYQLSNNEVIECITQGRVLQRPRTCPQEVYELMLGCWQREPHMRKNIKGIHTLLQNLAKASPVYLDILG
Sequence of MST3(h) (human) (Q9Y6E0 whole entry): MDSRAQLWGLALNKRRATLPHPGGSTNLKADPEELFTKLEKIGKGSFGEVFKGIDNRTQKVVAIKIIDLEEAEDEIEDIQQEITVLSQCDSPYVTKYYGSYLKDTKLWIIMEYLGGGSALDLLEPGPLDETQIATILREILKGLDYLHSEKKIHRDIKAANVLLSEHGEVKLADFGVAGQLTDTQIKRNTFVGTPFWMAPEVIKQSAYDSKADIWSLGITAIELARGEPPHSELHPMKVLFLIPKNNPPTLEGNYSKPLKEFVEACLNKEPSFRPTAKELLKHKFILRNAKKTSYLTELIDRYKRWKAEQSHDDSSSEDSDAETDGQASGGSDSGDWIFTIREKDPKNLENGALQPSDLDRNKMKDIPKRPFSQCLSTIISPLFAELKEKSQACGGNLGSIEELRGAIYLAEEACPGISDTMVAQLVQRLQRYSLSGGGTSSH
Sequence of Arg(h) (human) (P42684 38-1182 limits assumed): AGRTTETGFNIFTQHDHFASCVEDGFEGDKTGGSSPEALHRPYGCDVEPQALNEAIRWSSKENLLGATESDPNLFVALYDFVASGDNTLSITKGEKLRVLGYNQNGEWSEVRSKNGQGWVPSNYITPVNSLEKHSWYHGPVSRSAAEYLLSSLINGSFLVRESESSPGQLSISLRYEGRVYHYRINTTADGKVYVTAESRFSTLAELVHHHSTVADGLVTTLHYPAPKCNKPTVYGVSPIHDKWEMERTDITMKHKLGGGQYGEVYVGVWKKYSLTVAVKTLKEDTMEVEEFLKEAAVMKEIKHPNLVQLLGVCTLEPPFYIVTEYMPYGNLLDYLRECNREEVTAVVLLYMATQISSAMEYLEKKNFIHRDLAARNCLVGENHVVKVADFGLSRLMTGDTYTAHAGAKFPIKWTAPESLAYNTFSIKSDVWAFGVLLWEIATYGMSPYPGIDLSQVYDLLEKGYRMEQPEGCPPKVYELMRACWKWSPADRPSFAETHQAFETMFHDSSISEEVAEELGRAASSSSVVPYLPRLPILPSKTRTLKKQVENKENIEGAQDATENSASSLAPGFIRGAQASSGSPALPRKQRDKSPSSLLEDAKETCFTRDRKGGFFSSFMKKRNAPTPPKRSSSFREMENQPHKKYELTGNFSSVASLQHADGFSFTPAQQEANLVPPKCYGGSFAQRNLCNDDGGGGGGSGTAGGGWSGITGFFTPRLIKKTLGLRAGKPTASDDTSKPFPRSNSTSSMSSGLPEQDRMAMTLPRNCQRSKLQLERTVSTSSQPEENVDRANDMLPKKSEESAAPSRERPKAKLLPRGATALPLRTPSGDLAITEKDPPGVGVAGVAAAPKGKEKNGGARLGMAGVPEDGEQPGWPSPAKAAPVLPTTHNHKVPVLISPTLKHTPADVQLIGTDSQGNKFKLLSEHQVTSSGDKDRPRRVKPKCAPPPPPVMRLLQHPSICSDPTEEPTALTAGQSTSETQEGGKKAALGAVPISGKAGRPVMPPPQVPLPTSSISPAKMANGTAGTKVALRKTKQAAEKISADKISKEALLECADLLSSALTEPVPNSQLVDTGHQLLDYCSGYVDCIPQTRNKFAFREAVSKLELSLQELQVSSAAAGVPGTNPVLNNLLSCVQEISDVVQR
Sequence of PAK5(h) (human) (Q9P286 whole entry): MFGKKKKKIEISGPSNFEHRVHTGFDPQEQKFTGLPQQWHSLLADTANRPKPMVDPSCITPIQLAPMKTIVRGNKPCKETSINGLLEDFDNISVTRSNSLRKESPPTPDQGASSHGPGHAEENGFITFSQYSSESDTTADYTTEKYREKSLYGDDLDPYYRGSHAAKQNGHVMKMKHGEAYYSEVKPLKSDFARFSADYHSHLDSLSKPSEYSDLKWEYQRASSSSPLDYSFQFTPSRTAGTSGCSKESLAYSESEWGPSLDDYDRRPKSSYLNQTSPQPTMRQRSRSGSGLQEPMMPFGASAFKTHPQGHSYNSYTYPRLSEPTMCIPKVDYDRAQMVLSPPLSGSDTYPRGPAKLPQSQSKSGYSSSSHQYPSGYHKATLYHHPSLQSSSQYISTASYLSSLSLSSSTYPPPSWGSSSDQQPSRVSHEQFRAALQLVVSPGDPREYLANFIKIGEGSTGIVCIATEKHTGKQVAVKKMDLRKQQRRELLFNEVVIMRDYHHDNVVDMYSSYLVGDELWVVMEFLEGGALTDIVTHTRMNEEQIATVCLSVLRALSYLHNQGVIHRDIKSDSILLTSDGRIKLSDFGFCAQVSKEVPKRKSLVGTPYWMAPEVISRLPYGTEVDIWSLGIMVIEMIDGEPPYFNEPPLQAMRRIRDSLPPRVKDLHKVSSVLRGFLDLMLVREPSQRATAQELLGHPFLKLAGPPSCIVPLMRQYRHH
Sequence of Fyn(h) (human) (P06241 whole entry): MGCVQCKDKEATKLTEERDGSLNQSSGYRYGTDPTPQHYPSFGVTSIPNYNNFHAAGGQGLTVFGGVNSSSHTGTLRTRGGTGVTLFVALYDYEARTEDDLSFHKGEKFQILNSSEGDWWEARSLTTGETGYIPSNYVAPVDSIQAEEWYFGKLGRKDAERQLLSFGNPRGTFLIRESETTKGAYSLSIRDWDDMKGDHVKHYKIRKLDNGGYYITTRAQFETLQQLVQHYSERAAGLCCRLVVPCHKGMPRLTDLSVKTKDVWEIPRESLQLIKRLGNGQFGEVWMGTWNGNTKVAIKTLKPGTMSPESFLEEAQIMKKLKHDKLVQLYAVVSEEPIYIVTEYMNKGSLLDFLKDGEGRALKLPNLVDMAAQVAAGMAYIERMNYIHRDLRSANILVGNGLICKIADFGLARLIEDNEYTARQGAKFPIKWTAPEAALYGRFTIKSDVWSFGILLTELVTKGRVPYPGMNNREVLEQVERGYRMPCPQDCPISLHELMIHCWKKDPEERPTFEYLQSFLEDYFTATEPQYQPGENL
Sequence of FGFR3(h) (human) (P22607 397-806 limits assumed): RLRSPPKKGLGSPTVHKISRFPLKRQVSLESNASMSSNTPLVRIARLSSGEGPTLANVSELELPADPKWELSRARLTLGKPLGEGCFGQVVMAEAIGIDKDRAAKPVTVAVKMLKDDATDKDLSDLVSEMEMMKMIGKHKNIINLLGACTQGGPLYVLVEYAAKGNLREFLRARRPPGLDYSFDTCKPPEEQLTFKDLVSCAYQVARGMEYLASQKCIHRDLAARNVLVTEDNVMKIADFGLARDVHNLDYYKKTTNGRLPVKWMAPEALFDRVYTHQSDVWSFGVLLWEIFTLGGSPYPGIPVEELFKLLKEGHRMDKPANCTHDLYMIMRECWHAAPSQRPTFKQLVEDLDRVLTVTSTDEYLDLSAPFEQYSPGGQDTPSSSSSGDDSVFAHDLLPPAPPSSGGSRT
Sequence of PDGFRβ(h) (human) (P09619 557-1106 limits assumed): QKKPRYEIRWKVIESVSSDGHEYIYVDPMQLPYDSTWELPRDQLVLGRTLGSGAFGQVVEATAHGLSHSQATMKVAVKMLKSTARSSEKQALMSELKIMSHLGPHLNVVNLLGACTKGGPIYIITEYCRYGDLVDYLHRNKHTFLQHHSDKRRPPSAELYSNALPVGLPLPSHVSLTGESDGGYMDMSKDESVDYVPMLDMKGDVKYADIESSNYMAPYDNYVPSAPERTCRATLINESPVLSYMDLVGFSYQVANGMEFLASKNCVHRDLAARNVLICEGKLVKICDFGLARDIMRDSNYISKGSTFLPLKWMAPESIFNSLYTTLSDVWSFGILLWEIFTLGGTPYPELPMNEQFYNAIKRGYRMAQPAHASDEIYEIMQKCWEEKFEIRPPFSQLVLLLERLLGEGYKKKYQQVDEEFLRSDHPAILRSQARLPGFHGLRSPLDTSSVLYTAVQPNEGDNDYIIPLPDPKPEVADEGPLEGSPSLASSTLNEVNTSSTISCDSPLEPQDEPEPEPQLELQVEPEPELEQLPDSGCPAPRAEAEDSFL

As to MMI-0500 (peptide), the % activity, 100 µM in the assay with Fyn(h) (human) is 83%; in the assay with PAK5(h) (human), 125%; with DCAMKL2(h) (human), 56%; in the assay with Ret(V804L)(h) (human) it was 20%; with PKCµ(h) (human), 10%; in the assay with PKCγ(h) (human), 6%. For the same substance, the % activity, 100 µM with TrkB(h) (human) was 12%; with Arg(h) (human), 22%; with MAPK2(h) (human), 60%; with EGFR(h) (human) it was -1%; with EGFR(T790M)(h) (human) it was 70%; with FGFR3(h) (human) it was 10%. Further, the % activity, 100 µM was 4% with MST3(h) (human); 40% with PDGFRβ(h) (human); 17% with ROCK-I(h) (human); 93% in the assay with CK2(h) (human); 20% with NEK3(h) (human). In the assay with TrkB(h) (human), this substance yielded an inhibition of kinase activity at 100 µM above 65%.
